Assays:
BMP signaling [1] = assay: BMP inhibition in Xenopus tropicalis embryos; assay type: in vivo; conditions: DMH-1 20 pM vs DMSO
Method: BMP inhibition in frog and mouse embryos. Xenopus tropicalis embryo culture and small molecule treatments were performed as previously described (Rankin et al., 2012; Rankin et al., 2015). DMH-1 (Sigma D8946) was dissolved in DMSO, and used at final concentration of 20 pM; equal concentrations of DMSO vehicle were used on sibling embryos. Inhibitor treatment experiments were repeated twice with similar effects on the markers analyzed. For Xenopus in-situ hybridization analyses, DIG-labeled antisense RNA probes were generated using linearized full-length cDNA plasmid templates (X. tropicalis satb2 was purchased from ATCC, clone 7720194; HinDIII, T7 for probe; X. laevis satb2 was a gift for Tyler Square and Daniel Medeiros, University of Colorado-Boulder; Xbal, Sp6 for probe). Complete details describing probe synthesis and the in-situ hybridization protocol are available on Xenbase (hftp://wiki.xenbase.orq/xenwiki/index.php/Protocols).

BMP signaling [2] = assay: BMP inhibition in mouse whole embryo culture; assay type: in vivo
Method: For mouse whole embryo cultures, e7.5 embryos were cultured in a 1:1 mixture of Ham's F12 medium and whole embryo culture rat serum (Harlan Labs) containing N-2 Supplement (Invitrogen). Vessels were placed on a roller culture apparatus (BTC Engineering, Cambridge, UK) and maintained for 2 days at 37° C. and gassed with 20% 02 and 5% CO2. BMP signaling was inhibited by treatment with 5 pM DMH-1, with DMSO serving as a vehicle control.
(§1) Tissue processing, immunofluorescence and microscopy. Tissues were fixed for 1-3 hours in 4% paraformaldehyde (PFA) on ice depending on the size of the tissue. Organoids and transplant engraftments were frozen in OCT. OCT sections were blocked using donkey serum (5% serum in 1×PBS plus 0.5% Triton-X) for 30 min and incubated with primary antibody overnight at 4° C. Slides were then washed 3× with 1×PBS plus 0.5% Triton-X and incubated in secondary antibody with DAPI in blocking buffer for 2 h at room temperature. See Table 2 for a list of antibodies and respective dilutions. Slides were then washed 2× with 1×PBS plus 0.5% Triton-X followed by a final wash in 1×PBS. Coverslips were then mounted using Fluoromount-G® (SouthernBiotech). Images were captured on a Nikon A1 confocal microscope and analyzed using Imaris Imaging Software (Bitplane). For whole-mount staining, tissues were processed similarly as above and then cleared in Murray's solution. Imaging was performed with a Nikon A1 confocal microscope.
(§2) Quantification of immunofluorescence images. Image quantitation of whole embryos was done by splitting images into separated channels and then measuring pixel area using ImageJ (NIH). Pixel area was determined for each channel, the ratio between channels was determined and the ratio for control treated embryos was represented as 100. Quantitation of in vitro and in vivo grown organoids was done on sections from which images were captured as explained above. The number of CDX2, GATA4 and SATB2 positive nuclei were quantified using the spot function in [marls following calibration with human biopsy samples.

human gut tube spheroids [3] = assay: HOX/MSX2 gene expression in patterned gut tube spheroids after 3 days (RNA-seq, QPCR); assay type: cell-based
Method: (§3) Patterning midgut/hingut spheroids into HIOs and HCOs. Spheroids were collected from 24 well plate and plated in Matrigel (BD). To generate proximal HIOs, spheroids were overlayed with intestinal growth medium (Advanced DMEM/F-12, N2, B27, 15 mM HEPES, 2 mM L-glutamine, penicillin-streptomycin) supplemented with 100 ng/mL EGF (R&D) alone, or 100 ng/mL EGF with 100 ng/ml NOGGIN (R&D). To generate HCOs, spheroids were overlayed with 100 ng/mL EGF plus 100 ng/mL BMP (R&D). For SHH experiments, 1 pM SAG (Tocris), 5 pM SAG or 2.5 pM Cyclopamine (Tocris) were added to control media for initial 3 days after which RNA samples were collected. Media was changed at 3 days with only EGF being maintained in the media for all patterning conditions. Media was then changed twice weekly thereafter. HIOs and HCOs were replated in fresh Matrigel every 14 days.
(§4) RNA isolation and QPCR. RNA was extracted using Nucleospin® RNA extraction kit (Macharey-Nagel) and reverse transcribed into cDNA using Superscript VILO (Invitrogen) according to manufacturer's protocols. QPCR primers were designed using the qPrimerDepot webased tool (primerdepot.nci.nih.gov). QPCR was performed using Quantitect SYBR® Green PCR kit (Qiagen) and a QuantStudio™ 6 Flex Real-Time PCR System (Applied Biosystems).

transplanted organoids = assay: Transplantation of patterned organoids under the mouse kidney capsule; assay type: in vivo
Method: as §1

human gut tube spheroids [4] = assay: Patterning of human gut tube spheroids (pSMAD1/5/8 and SATB2 staining); assay type: cell-based; conditions: spheroids treated for 12 hours; 100 ng/mL
Method: as §3, with “Media was then changed twice weekly thereafter. HIOs and HCOs were replated in fresh Matrigel every 14 days.” left out
Tissue processing, immunofluorescence and microscopy. […] Images were captured on a Nikon A1 confocal microscope and analyzed using Imaris Imaging Software (Bitplane). […]
as §2, with “The number of CDX2, GATA4 and SATB2 positive nuclei were quantified using the spot function in [marls following calibration with human biopsy samples.” left out

organoid mesenchyme = assay: Patterning markers in isolated organoid mesenchyme cultures (QPCR); assay type: cell-based, human; conditions: mesenchymal cell cultures expanded for 2-3 weeks
Method: as §4

[5] = system: human intestinal organoids; assay: Regional markers in organoids after prolonged in vitro culture (IF, QPCR); assay type: cell-based
Method: as §3, §1, §2, §4

[6] = 28-day old organoids after initial 3 day treatment

CC(C)Oc1ccc(-c2cnc3c(-c4ccnc5ccccc45)cnn3c2)cc1 [DMH-1]
Satb2 expression in the hindgut and brachial arches (BMP signaling [1]): loss of Satb2 expression | Satb2 expression in the first brachial arch (BMP signaling [2]; DMH-1 treated mouse embryos): lost | Satb2 expression in the posterior gut tube (BMP signaling [2]; e7.5 mouse embryos, 48 hours of DMH-1 treatment): loss of Satb2 expression | pSmad1/5/8 levels (BMP signaling [2]; e7.5 mouse embryos, 48 hours of DMH-1 treatment, 5 µM DMH-1 vs DMSO): significant reduction | TGFI3 signaling as measured by pSmad2/3 levels (BMP signaling [2]; mouse embryos cultured in DMSO or DMH-1): no impact

CNC1CCC(N(Cc2cccc(-c3ccncc3)c2)C(=O)c2sc3ccccc3c2Cl)CC1 (stereo not shown) [SAG]
SAG-mediated activation of MSX2, HOXA13, HOXD13 relative to activation mediated by BMP2 (human gut tube spheroids [3]; 3 days): only a fraction | activation of MSX2, HOXA13 and HOXD13 (QPCR) (human gut tube spheroids [3]; SAG added to control media for initial 3 days): concentration dependent activation

B1: NOGGIN: BMP inhibitor NOGGIN (R&D), 100 ng/ml, used to generate proximal HIOs (protein, UniProt Q13253 28-232, looked up)
Noggin: QHYLHIRPAPSDNLPLVDLIEHPDPIFDPKEKDLNETLLRSLLGGHYDPGFMATSPPEDRPGGGGGAAGGAEDLAELDQLLRQRPSGAMPSEIKGLEFSEGLAQGKKQRLSKKLRRKLQMWLWSQTFCPVLYAWNDLGSRFWPRYVKVGSCFSKRSCSVPEGMVCKPSKSVHLTVLRWRCQRRGGQRCGWIPIQYPIISECKCSC
efficiency of organoid engraftment (transplanted organoids; compared with HCOs): more efficient | epithelial morphology of transplanted organoids (transplanted organoids; under the mouse kidney capsule for 6-10 weeks): formed well-defined crypts and tall villi | BMP signaling levels by nuclear pSMAD1/5/8 staining (human gut tube spheroids [4]): abolished this staining | HOXD3 expression / proximal identity of mesenchyme (organoid mesenchyme): stable proximal identity | SATB2 expression after re-patterning with NOGGIN ([5]; 3-day BMP treated spheroids shifted to NOGGIN-containing media for 3 days): a subset of organoids lost SATB2 expression | Levels of ONECUT1 (marker of proximal small intestine) [5, 6]: highest | SATB2 in the epithelium [5, 6]: absent | MUC5B staining (colon-specific goblet cell marker) ([5]; 28-day organoids): absent | goblet cells by intracellular MUC2 staining ([5]; at 28 days): rare intracellular MUC2 staining

Reference: patent US11767515B2, “Colonic organoids and methods of making and using same” (Children's Hospital Medical Center, priority 2016, dated 2023)
